From patent US20240059789A1 (Janssen / Centocor, published 2024)

Biological target: Human CD3 on T cells / Jurkat cells (human, UniProt P07766 23-207)
Assay: cell-based or functional assay

Sequence of Human CD3 on T cells / Jurkat cells (P07766 23-207 limits assumed): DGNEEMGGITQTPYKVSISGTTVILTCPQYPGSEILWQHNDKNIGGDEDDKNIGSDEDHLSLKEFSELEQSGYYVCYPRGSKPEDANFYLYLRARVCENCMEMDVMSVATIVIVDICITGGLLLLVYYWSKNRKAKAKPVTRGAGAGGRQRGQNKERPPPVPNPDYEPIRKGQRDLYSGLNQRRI

T cell activation EC50 [M] (CD25+ T cells, C4-2B co-culture, 72 h): 4.48e-12 M
B1: PS3B917 (bispecific antibody, human IgG1, lambda, L234A L235A)
heavy 1: QVQLQQSGPRLVRPSQTLSLTCAISGDSVFNNNAAWSWIRQSPSRGLEWLGRTYYRSKWLYDYAVSVKSRITVNPDTSRNQFTLQLNSVTPEDTALYYCARGYSSSFDYWGQGTLVTVSSASTKGPSVFPLAPSSKSTSGGTAALGCLVKDYFPEPVTVSWNSGALTSGVHTFPAVLQSSGLYSLSSVVTVPSSSLGTQTYICNVNHKPSNTKVDKKVEPKSCDKTHTCPPCPAPEAAGGPSVFLFPPKPKDTLMISRTPEVTCVVVSVSHEDPEVKFNWYVDGVEVHNAKTKPREEQYNSTYRVVSVLTVLHQDWLNGKEYKCKVSNKALPAPIEKTISKAKGQPREPQVYTLPPSREEMTKNQVSLTCLVKGFYPSDIAVEWESNGQPENNYKTTPPVLDSDGSFLLYSKLTVDKSRWQQGNVFSCSVMHEALHNHYTQKSLSLSPG
light 1: QSALTQPASVSGSPGQSITISCTGTSSNIGTYKFVSWYQQHPDKAPKVLLYEVSKRPSGVSSRFSGSKSGNTASLTISGLQAEDQADYHCVSYAGSGTLLFGGGTKLTVLGQPKAAPSVTLFPPSSEELQANKATLVCLISDFYPGAVTVAWKADSSPVKAGVETTTPSKQSNNKYAASSYLSLTPEQWKSHRSYSCQVTHEGSTVEKTVAPTECS
heavy 2: EVQLVESGGGLVKPGGSLRLSCAASGFTFSRYNMNWVRQAPGKGLEWVSSINSNSRYIYYADSVKGRFTISRDSAKNSLYLQMNSLRAEDTAVYYCAKTMGDYYYYYGMDVWGQGTTVTVSSASTKGPSVFPLAPSSKSTSGGTAALGCLVKDYFPEPVTVSWNSGALTSGVHTFPAVLQSSGLYSLSSVVTVPSSSLGTQTYICNVNHKPSNTKVDKKVEPKSCDKTHTCPPCPAPEAAGGPSVFLFPPKPKDTLMISRTPEVTCVVVSVSHEDPEVKFNWYVDGVEVHNAKTKPREEQYNSTYRVVSVLTVLHQDWLNGKEYKCKVSNKALPAPIEKTISKAKGQPREPQVYTLPPSREEMTKNQVSLTCLVKGFYPSDIAVEWESNGQPENNYKTTPPVLDSDGSFFLYSRLTVDKSRWQQGNVFSCSVMHEALHNHYTQKSLSLSPG
light 2: QSVLTQPPSVSGAPGQRVTISCTGSSFNLGAGYDVHWYQQVPGTVPKLLIYDNSNRPSGVPDRFSGSKSGTSASLAITGLQAEDETVYYCQSYDSSLSGVVFGGGTKLTVLGQPKAAPSVTLFPPSSEELQANKATLVCLISDFYPGAVTVAWKADSSPVKAGVETTTPSKQSNNKYAASSYLSLTPEQWKSHRSYSCQVTHEGSTVEKTVAPTECS
